Experiment [1] has as its target human αvβ3 protein (CHEMICON), soluble (human) (UniProt P06756). The experiment is described as follows: cell-based or functional assay.
For experiment [2], the target named is αvβ3 integrin on C-PAE cells (bovine) (UniProt P80746). The experiment is described as follows: C-PAE attachment to Tum-4-coated plates; the blocked ligand is Tum-4.
For experiment [3] the target is unchanged. The experiment is described as follows: C-PAE attachment to Tum-1-coated plates; the blocked ligand is Tum-1.
For experiment [4], the target named is αvβ3 integrin on HUVEC cells (human) (UniProt P06756). The experiment is described as follows: HUVEC attachment to plates coated with E. coli-expressed Tumstatin-44-131 (10 µg/ml); 10 µg/ml antibody; the blocked ligand is Tumstatin-44-131.
The target is the same in experiment [5]. The experiment can be described thus: HUVEC attachment to Tumstatin-coated plates (10 µg/ml); 10 µg/ml antibody, against control IgG; the blocked ligand is Tumstatin.
The target is the same in experiment [6]. The experiment can be described thus: HUVEC adhesion to collagen Type IV-coated wells (10 µg/ml); 10 µg/ml antibody; the blocked ligand is type IV collagen.
The target is the same in experiment [7]. The experiment can be described thus: HUVEC binding to vitronectin-coated plates; 10 µg/ml antibody; the blocked ligand is vitronectin.
The target is the same in experiment [8]. The experiment can be described thus: HUVEC attachment to Tumstatin-coated plates; αvβ3 antibody used TOGETHER with β1 antibody; the blocked ligand is Tumstatin.
For experiment [9], the target named is αvβ3 integrin on C-PAE cells (bovine) (UniProt P80746). The experiment can be described thus: C-PAE attachment to Tum-2-coated plates; the blocked ligand is Tum-2.
Experiment [10] addresses integrin β1 subunit on HUVEC cells (human) (UniProt P05556). The experiment can be described thus: HUVEC binding to type IV collagen-coated plates; 10 µg/ml antibody, against control IgG; the blocked ligand is type IV collagen.
The target is the same in experiment [11]. The experiment is described as follows: HUVEC attachment to plates coated with E. coli-expressed Tumstatin-44-131 (10 µg/ml); 10 µg/ml antibody; the blocked ligand is Tumstatin-44-131.
The target is the same in experiment [12]. The experiment can be described thus: HUVEC attachment to Tumstatin-coated plates (10 µg/ml); 10 µg/ml antibody, against control IgG; the blocked ligand is Tumstatin.
The target is the same in experiment [13]. The experiment can be described thus: HUVEC adhesion to collagen Type IV-coated wells (10 µg/ml); 10 µg/ml antibody; the blocked ligand is type IV collagen.
For experiment [14] the target is unchanged. The experiment is described as follows: HUVEC adhesion to Arresten-coated wells (10 µg/ml); cells pre-mixed with 10 µg/ml antibody; the blocked ligand is Arresten.

αvβ3 integrin on C-PAE cells (bovine), sequence (P80746 31-1048): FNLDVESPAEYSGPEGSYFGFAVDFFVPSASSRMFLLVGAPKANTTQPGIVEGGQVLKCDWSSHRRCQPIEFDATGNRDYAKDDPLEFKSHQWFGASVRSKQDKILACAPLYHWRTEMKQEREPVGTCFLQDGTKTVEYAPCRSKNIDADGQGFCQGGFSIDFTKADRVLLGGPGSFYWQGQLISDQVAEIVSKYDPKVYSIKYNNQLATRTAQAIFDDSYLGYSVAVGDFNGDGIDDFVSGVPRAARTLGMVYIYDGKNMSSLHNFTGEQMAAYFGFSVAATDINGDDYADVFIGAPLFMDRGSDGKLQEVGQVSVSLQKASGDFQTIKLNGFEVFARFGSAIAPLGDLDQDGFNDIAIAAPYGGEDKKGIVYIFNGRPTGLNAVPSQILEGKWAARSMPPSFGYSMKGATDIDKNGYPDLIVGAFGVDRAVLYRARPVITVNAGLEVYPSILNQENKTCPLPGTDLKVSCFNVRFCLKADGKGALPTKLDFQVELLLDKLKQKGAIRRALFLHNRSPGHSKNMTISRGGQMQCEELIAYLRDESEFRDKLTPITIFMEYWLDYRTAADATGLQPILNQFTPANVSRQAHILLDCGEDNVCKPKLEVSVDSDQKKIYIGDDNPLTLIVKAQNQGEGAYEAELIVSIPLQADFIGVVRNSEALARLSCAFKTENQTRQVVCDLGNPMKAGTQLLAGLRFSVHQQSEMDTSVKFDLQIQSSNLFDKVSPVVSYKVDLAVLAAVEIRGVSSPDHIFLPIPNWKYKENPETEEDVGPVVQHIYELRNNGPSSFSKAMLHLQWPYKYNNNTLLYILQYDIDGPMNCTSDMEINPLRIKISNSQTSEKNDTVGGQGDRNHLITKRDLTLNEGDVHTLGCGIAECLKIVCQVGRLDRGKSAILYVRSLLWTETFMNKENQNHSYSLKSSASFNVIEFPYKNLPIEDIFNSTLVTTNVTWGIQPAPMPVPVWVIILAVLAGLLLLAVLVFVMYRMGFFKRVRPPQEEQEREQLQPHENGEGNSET
integrin β1 subunit on HUVEC cells (human), sequence (P05556 21-798): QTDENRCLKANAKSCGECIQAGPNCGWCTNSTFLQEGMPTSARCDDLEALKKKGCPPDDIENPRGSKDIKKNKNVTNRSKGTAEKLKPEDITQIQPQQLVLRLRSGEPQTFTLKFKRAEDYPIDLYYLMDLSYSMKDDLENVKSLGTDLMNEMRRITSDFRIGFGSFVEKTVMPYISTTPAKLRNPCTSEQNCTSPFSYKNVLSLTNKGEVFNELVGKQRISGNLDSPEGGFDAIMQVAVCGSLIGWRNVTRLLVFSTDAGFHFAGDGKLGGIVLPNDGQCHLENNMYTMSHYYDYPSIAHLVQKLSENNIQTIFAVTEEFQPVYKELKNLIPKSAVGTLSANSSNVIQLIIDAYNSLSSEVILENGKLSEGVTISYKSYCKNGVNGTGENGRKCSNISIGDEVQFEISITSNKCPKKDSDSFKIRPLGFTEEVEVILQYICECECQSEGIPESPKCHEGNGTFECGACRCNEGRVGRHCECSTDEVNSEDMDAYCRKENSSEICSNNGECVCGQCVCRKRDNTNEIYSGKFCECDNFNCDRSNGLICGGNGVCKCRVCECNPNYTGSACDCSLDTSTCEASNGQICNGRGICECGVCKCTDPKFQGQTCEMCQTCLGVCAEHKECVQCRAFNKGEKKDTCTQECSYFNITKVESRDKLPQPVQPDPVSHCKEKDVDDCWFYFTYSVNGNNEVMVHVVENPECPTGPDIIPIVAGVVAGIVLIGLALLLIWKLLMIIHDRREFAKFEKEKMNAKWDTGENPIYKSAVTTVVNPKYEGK
αvβ3 integrin on HUVEC cells (human), sequence (P06756 31-1048, chain 1 of 2): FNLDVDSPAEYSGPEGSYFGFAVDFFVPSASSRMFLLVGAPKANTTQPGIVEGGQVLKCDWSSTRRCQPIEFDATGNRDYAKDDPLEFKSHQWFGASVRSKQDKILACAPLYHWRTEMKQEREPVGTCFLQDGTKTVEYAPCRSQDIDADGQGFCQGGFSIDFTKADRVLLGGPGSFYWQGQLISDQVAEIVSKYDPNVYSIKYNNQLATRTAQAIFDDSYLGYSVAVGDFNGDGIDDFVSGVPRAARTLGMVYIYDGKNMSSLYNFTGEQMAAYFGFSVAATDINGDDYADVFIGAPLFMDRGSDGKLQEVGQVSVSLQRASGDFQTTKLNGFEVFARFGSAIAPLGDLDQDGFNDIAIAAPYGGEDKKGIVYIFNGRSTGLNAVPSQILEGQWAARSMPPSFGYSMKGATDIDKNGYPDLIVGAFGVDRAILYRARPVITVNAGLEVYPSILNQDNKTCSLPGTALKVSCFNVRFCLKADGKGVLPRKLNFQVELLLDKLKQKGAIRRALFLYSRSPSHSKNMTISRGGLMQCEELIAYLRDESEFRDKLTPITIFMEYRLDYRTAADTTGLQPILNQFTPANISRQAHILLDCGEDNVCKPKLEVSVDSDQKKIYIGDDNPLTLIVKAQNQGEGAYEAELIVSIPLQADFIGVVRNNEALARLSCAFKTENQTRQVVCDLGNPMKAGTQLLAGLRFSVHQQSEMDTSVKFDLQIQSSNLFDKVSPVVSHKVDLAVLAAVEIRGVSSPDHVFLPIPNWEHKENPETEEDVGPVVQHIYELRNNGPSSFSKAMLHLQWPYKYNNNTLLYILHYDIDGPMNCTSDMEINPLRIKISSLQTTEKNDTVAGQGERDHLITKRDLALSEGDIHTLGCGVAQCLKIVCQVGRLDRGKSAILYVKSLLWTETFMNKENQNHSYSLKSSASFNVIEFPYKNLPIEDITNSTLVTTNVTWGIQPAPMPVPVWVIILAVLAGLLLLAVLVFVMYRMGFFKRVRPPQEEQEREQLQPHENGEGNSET
αvβ3 integrin on HUVEC cells (human), sequence (P05106 27-788, chain 2 of 2, further chain): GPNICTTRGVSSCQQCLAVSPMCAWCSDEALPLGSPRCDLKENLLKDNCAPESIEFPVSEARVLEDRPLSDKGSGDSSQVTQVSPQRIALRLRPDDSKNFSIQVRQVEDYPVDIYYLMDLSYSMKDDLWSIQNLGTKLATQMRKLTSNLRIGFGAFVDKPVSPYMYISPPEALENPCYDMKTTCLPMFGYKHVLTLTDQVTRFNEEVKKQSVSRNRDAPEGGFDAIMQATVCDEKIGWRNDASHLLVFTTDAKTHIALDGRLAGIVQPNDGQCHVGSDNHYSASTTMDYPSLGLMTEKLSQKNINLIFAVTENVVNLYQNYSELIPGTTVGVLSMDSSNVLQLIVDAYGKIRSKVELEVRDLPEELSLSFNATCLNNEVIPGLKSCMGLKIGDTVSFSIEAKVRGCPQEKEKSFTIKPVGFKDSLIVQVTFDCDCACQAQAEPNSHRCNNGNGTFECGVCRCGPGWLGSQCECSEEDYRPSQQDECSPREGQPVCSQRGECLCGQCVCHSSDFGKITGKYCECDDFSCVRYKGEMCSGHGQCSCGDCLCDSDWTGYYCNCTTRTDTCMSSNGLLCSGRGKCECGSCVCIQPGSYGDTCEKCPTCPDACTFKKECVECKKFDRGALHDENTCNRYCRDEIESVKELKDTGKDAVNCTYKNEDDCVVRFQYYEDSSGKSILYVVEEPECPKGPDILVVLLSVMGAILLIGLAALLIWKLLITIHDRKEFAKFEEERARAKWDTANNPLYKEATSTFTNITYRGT

Substance “Tum-2 (from UniProt Q01955 1427-1558) (ligand)” displayed a recovery of Tum-2's anti-proliferative effect on C-PAE cells after pre-incubation with αvβ3 protein (methylene blue) in [1] of 74.1%.

For “Tum-4 (from UniProt Q01955 1607-1670) (ligand)”, the recovery of the Tum-4-induced anti-proliferative effect on WM-164 melanoma cells after pre-incubation with αvβ3 protein (methylene blue) in experiment [1] was determined as 76.7%.

With “monoclonal antibody to αvβ3 integrin (clone LM609, CHEMICON)”, the % inhibition of cell attachment is 62.6% in [2]; 55.9% in experiment [3]; 47.1% in experiment [4]; 80% in experiment [5]; 91% in [8]; 69.8% in experiment [9]. Further, the % inhibition of cell adhesion in experiment [6] stood at 15%. This substance also had a % inhibition of cell binding in experiment [7] of 61%.

“mouse monoclonal antibody to the human β1 integrin subunit (clone P4C10)”: the % inhibition of cell binding in experiment [10] was found to be 53%. Besides, the % inhibition of cell attachment in [11] was found to be 47.5%; in experiment [12], 54%. The % inhibition of cell adhesion is 40% in [13] and 70% in experiment [14].

These data come from patent US20090054344A1.
